From patent publication US20180125993A1 (BEIJING COTIMES BIOTECH COMPANY LIMITED, priority 2014, published 2018)

Experiments:
[1] = test system: N87; assay: In vitro cytotoxic sensitivity of CTB006; type: cell-based, human; conditions: N87, Stomach cancer
[2] = test system: MKN28; assay: In vitro cytotoxic sensitivity of CTB006; type: cell-based, human; conditions: MKN28, Stomach cancer
[3] = test system: 7402; assay: In vitro cytotoxic sensitivity of CTB006; type: cell-based, human; conditions: 7402, Liver cancer
[4] = test system: 2-LMP; assay: Cytotoxicity on human tumor cell lines (ATPLite Assay Kit); type: cell-based; conditions: Breast cancer
Method: (§1) Eighteen human tumor cell lines were treated with 62.5, 125, 250, 500, or 1000 ng/mL HuCTB006 or different concentrations of chemotherapy drugs, which act as positive controls. […] The culture medium for SK-Hep-1, HepG2, HCT116, SW480, WiDr (1×NEAA), MIA-PaCa-2 (2.5% Horse serum) MDA-MB-231 (1 mM NaPyr, 1×MEM-NEAA, 1×MEM VITAMIN) was DMEM. The culture medium for COLO205, BXPC3 (2 mM glutamin, 10 mM HEPES), Panc2.03 (15FBS, 1 mM NaPyr, 1×MEM-NEAA, […], 10 mM HEPES), H2122, OVCAR3 (1 mM NaPyr, 10 ug/ml human insulin, 10 mM HEPES, 2.5 g/L glucose), Molt-4 (HEPES, 2.5 g/l glocose), Jurkat (HEPES, 2.5 g/l glocose) was RPMI-1640, the culture medium for SK-MES-1 was Eagle's MEM, the culture medium for 2-LMP and DY36T2 was IMEM, and the culture medium for SUM102 (5 ug/ml insulin) was F-12K. The cell viability was determined by ATPLite Assay Kit. If the IC50 value was lower than 62.5 ng/mL, the cells were treated with higher concentration of CTB006 in the second round of experiments to determine IC50 value.

[5] = test system: HCT116; assay: as above; type: cell-based; conditions: HCT116, Colorectal cancer
Method: as §1

[6] = test system: SK-MES-1; assay: as above; type: cell-based; conditions: SK-MES-1, Lung cancer
Method: as §1

[7] = test system: MIA-PaCa-2; assay: as above; type: cell-based; conditions: MIA-PaCa-2, Pancreatic cancer
Method: as §1

[8] = test system: MDA-MB-231; assay: as above; type: cell-based; conditions: MDA-MB-231, Breast cancer
Method: as §1

[9] = test system: BXPC3; assay: as above; type: cell-based; conditions: BXPC3, Pancreatic cancer
Method: as §1

[10] = test system: H2122; assay: as above; type: cell-based; conditions: H2122, Lung cancer
Method: as §1

[11] = test system: SUM102; assay: as above; type: cell-based; conditions: SUM102, Breast cancer
Method: as §1

[12] = test system: SW480; assay: as above; type: cell-based; conditions: SW480, Colorectal cancer
Method: as §1

[13] = test system: COLO205; assay: as above; type: cell-based; conditions: COLO205, Colorectal cancer
Method: as §1

[14] = test system: SK-Hep-1; assay: as above; type: cell-based; conditions: SK-Hep-1, Liver cancer
Method: as §1

[15] = test system: Panc2.03; assay: as above; type: cell-based; conditions: Panc2.03, Pancreatic cancer
Method: as §1

[16] = test system: colon cancer, CS263, 1#; assay: Patients primary tumor tissue subcutaneous model (Day 35 after treatment); type: in vivo, nude mice; conditions: HuCTB006 10 mg/kg i.v. QW × 4w
Description: Fresh primary tumor tissues from patients were implanted in NOD/SCID mice's flank, which developed into a primary tumor, which was then transferred to the nude mice's flank to allow the tumor reaching an exponential growth phase, and the tumor was named 1# tumor, and so on. When the tumor volume and number reached passage requirements, they were implanted into the right flank of nude mice. When the tumors' average volumes reached 100-200 mm^3, the mice were grouped.
The bodyweight and major/minor axis of mice were measured twice a week, and Tumor Growth Inhibition (TGI) and tumor volume were calculated same as in 5.1.5. In addition, to evaluate the synergetic effect of drug combination in tumor growth, Jin Zhengjun Q value judgment method was used with the follow formula: Q=Ea+b/(Ea+Eb−Ea×Eb). Ea+b is the inhibition ratio of drug combination, Ea and Eb are the inhibition ratio of each of drug treatment when it is administered alone. […] The animals were monitored, and when the experiments were concluded, mice were sacrificed and tumors were extracted and weighted. All the animal experiments confer to the regulations of animal's welfare and the management of experimental animal usage.
Tumor volumes were represented with average±standard error. Data analysis was done using Spss16.0, One-Way ANOVA, LSD (homogeneity of variance) or Dunnett T3 (non-homogeneity of variance). […] P<0.05 represents significant difference.

[17] = test system: Capan-1; assay: In vitro cytotoxic sensitivity of CTB006; type: cell-based, human; conditions: Capan-1, Pancreatic cancer
[18] = test system: 7901; assay: In vitro cytotoxic sensitivity of CTB006; type: cell-based, human; conditions: 7901, Stomach cancer
[19] = test system: HCC1954; assay: In vitro cytotoxic sensitivity of CTB006; type: cell-based, human; conditions: HCC1954, Breast cancer

For “HuCTB006: Monospecific humanized chimeric monoclonal antibody directed to TRAIL-R2 receptor; heavy chain SEQ ID NO: 14, light chain SEQ ID NO: 12”, the “In vitro cytotoxic sensitivity of CTB006” value [1] was “Non-responder”, the “In vitro cytotoxic sensitivity of CTB006” value [2] was “Non-responder” and the “In vitro cytotoxic sensitivity of CTB006” value [3] was “Non-responder”. For the same substance, the “In vitro cytotoxic sensitivity of CTB006” value [4] was “Responder”, the “In vitro cytotoxic sensitivity of CTB006” value [5] was “Responder” and the “In vitro cytotoxic sensitivity of CTB006” value [6] was “Responder”. The “In vitro cytotoxic sensitivity of CTB006” value [7] was “Responder”, the “In vitro cytotoxic sensitivity of CTB006” value [8] was “Responder” and the “In vitro cytotoxic sensitivity of CTB006” value [9] was “Responder”. For the same substance, the “In vitro cytotoxic sensitivity of CTB006” value [10] was “Responder”, the “In vitro cytotoxic sensitivity of CTB006” value [11] was “Partial-responder” and the “In vitro cytotoxic sensitivity of CTB006” value [12] was “Partial-responder”. For the same substance, the “In vitro cytotoxic sensitivity of CTB006” value [13] was “Responder”, the “In vitro cytotoxic sensitivity of CTB006” value [14] was “Partial-responder” and the “In vitro cytotoxic sensitivity of CTB006” value [15] was “Partial-responder”. The “T/C % (Calculated using tumor volumes)” value [16] was 89.71%, the “TGI (Calculated using tumor volumes)” value [16] was 9.42% and the “TGI (Calculated using tumor weight)” value [16] was 16.11%. The “Time of tumor volume changed significantly” value [16] was 13, the “Tumor Volume Mean ± SEM” value [16] was 0.96 ± 0.22 cm^3 and the “Tumor weight Mean ± SEM” value [16] was 0.67 ± 0.16 g. The “TGI (Calculated using tumor volumes)” value ([16]; 10 mg/kg) was 9.42%, the “TGI (Calculated using tumor weight)” value ([16]; 10 mg/kg) was 16.11% and the “In vitro cytotoxic sensitivity of CTB006” value [17] was “Non-responder”. The “In vitro cytotoxic sensitivity of CTB006” value [18] was “Non-responder” and the “In vitro cytotoxic sensitivity of CTB006” value [19] was “Non-responder”.
